The text below walks through data of PMC11514458.

For data set [1], the target named is T1, BCDX2 complex (human, UniProt O15315;O43502;O75771;O43543 1-384;1-376;1-328;1-280).
T1 sequence 1: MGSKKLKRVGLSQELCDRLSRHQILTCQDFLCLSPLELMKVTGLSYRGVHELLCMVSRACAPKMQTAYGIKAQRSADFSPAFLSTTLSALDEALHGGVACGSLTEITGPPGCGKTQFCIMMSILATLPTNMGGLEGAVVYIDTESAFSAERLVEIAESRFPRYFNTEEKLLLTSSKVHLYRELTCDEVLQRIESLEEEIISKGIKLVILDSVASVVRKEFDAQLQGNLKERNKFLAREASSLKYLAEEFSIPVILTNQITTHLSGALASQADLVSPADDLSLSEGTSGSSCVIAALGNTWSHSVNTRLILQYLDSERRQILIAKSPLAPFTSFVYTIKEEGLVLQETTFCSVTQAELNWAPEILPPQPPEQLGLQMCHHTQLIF
T1 sequence 2: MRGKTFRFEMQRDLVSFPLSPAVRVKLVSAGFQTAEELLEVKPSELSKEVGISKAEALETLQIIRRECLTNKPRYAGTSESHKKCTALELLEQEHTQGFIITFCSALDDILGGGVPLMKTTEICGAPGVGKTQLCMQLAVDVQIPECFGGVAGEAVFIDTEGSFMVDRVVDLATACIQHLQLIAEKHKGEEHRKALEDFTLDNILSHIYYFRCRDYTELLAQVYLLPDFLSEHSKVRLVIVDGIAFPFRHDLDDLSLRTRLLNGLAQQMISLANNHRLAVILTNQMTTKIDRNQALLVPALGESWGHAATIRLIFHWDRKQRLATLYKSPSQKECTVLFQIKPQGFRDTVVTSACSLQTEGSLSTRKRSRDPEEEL
T1 sequence 3: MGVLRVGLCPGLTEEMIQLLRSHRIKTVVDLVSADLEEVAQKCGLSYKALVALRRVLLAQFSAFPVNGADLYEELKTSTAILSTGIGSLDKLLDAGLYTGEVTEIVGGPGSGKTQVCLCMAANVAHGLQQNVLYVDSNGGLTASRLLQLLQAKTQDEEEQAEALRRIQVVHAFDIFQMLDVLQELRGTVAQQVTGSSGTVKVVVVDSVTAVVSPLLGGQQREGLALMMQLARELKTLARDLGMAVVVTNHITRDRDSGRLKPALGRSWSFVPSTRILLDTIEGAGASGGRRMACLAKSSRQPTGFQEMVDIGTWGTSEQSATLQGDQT
T1 sequence 4: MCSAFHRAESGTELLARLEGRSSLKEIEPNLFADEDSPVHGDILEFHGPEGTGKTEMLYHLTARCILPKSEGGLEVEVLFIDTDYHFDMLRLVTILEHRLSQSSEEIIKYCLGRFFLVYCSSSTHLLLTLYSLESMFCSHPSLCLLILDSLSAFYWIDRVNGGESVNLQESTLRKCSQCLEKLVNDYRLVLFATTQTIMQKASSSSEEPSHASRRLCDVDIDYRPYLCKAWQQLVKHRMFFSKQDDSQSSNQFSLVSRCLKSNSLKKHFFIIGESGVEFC
The data set can be described thus: EMSA; efficient binding; EMSA: 20 mM Tris-HCl pH 7.5, 2 mM MgCl2, 2 mM ATP, 37 C, 20 nM DNA, glutaraldehyde fixation; stopped-flow: 25 mM Tris-HCl pH 7.5, 5 mM MgCl2, 50 mM KCl, 2 mM ATP, 0.5 mM EDTA, 10% glycerol, 37 C; BLI: 50 mM Tris-HCl pH 7.5, 2 mM ATP, 50 mM KCl, 5 mM MgCl2, 0.05% Tween 20, room temperature. As to conditions: protein: recombinant; tags: Strep-tag and His-tag (XRCC2 N-terminal His); copies: 1;1;1;1; label: 5' FITC. For orientation: Mobility shift assays separate free from complexed probe on a gel.

Data set [2] deals with T1, BCDX2 complex. As to the kind of experiment: EMSA; significant binding; EMSA: 20 mM Tris-HCl pH 7.5, 2 mM MgCl2, 2 mM ATP, 37 C, 20 nM DNA, glutaraldehyde fixation; stopped-flow: 25 mM Tris-HCl pH 7.5, 5 mM MgCl2, 50 mM KCl, 2 mM ATP, 0.5 mM EDTA, 10% glycerol, 37 C; BLI: 50 mM Tris-HCl pH 7.5, 2 mM ATP, 50 mM KCl, 5 mM MgCl2, 0.05% Tween 20, room temperature. The settings on record: protein: recombinant; tags: Strep-tag and His-tag (XRCC2 N-terminal His); copies: 1;1;1;1; label: 5' FITC.

The target of data set [3] is T2, RAD51;BCDX2(R159A) (human?;human?, UniProt Q06609;O15315;O43502;O75771;O43543 1-339;1-384;1-376;1-328;1-280, |R159A). The data set can be described thus: BLI; no RAD51 loading by mutant; EMSA: 20 mM Tris-HCl pH 7.5, 2 mM MgCl2, 2 mM ATP, 37 C, 20 nM DNA, glutaraldehyde fixation; stopped-flow: 25 mM Tris-HCl pH 7.5, 5 mM MgCl2, 50 mM KCl, 2 mM ATP, 0.5 mM EDTA, 10% glycerol, 37 C; BLI: 50 mM Tris-HCl pH 7.5, 2 mM ATP, 50 mM KCl, 5 mM MgCl2, 0.05% Tween 20, room temperature. The settings on record: protein: recombinant;recombinant; tags: ;; copies: 1;1;1;1;1; label: 5' biotin.
T2 sequence (Q06609 whole entry, stated change not applied, one chain of several): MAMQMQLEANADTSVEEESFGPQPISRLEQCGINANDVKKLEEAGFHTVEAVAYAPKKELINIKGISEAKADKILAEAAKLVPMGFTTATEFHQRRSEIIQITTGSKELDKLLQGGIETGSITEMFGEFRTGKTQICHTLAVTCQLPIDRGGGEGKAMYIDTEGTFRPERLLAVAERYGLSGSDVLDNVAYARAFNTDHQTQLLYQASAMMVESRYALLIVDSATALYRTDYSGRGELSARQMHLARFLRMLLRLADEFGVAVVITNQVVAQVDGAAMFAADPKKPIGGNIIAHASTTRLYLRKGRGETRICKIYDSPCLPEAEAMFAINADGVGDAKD

In data set [4] the target is T3, RAD51;BCD(R266A)X2 (human?;human?, UniProt Q06609;O15315;O43502;O75771;O43543 1-339;1-384;1-376;1-328;1-280, |R266A). The data set is described as above. The settings on record: protein: recombinant;recombinant; tags: ;; copies: 1;1;1;1;1; label: 5' biotin.
T3 sequence (Q06609 whole entry, stated change not applied, one chain of several): as above
In data set [5] the target is T1, BCDX2 complex. The data set can be described thus: EMSA; 10 nt sufficient within reversed fork; EMSA: 20 mM Tris-HCl pH 7.5, 2 mM MgCl2, 2 mM ATP, 37 C, 20 nM DNA, glutaraldehyde fixation; stopped-flow: 25 mM Tris-HCl pH 7.5, 5 mM MgCl2, 50 mM KCl, 2 mM ATP, 0.5 mM EDTA, 10% glycerol, 37 C; BLI: 50 mM Tris-HCl pH 7.5, 2 mM ATP, 50 mM KCl, 5 mM MgCl2, 0.05% Tween 20, room temperature. The settings on record: protein: recombinant; tags: Strep-tag and His-tag (XRCC2 N-terminal His); copies: 1;1;1;1; label: 3' Cy3 on strand 1; reversed fork of 4 strands, 3' ssDNA tail 10 nt.

For data set [6], the target named is T4, RAD51;BCDX2 complex (human?;human, UniProt Q06609;O15315;O43502;O75771;O43543 1-339;1-384;1-376;1-328;1-280, |). The data set can be described thus: BLI; enhanced RAD51 loading; EMSA: 20 mM Tris-HCl pH 7.5, 2 mM MgCl2, 2 mM ATP, 37 C, 20 nM DNA, glutaraldehyde fixation; stopped-flow: 25 mM Tris-HCl pH 7.5, 5 mM MgCl2, 50 mM KCl, 2 mM ATP, 0.5 mM EDTA, 10% glycerol, 37 C; BLI: 50 mM Tris-HCl pH 7.5, 2 mM ATP, 50 mM KCl, 5 mM MgCl2, 0.05% Tween 20, room temperature. The settings on record: protein: recombinant;recombinant; tags: ;Strep-tag and His-tag (XRCC2 N-terminal His); copies: 1;1;1;1;1; label: 3' Cy3 on strand 1; 5' biotin on strand 4; reversed fork of 4 strands, 3' ssDNA tail. (In general: Biolayer interferometry detects binding as a change in optical thickness at a sensor tip.)
T4 sequence (Q06609 whole entry, one chain of several): as the sequence (Q06609 whole entry, stated change not applied, one chain of several) above

In data set [7] the target is T2, RAD51;BCDX2(R159A). The data set can be described thus: BLI; RAD51 loading retained; EMSA: 20 mM Tris-HCl pH 7.5, 2 mM MgCl2, 2 mM ATP, 37 C, 20 nM DNA, glutaraldehyde fixation; stopped-flow: 25 mM Tris-HCl pH 7.5, 5 mM MgCl2, 50 mM KCl, 2 mM ATP, 0.5 mM EDTA, 10% glycerol, 37 C; BLI: 50 mM Tris-HCl pH 7.5, 2 mM ATP, 50 mM KCl, 5 mM MgCl2, 0.05% Tween 20, room temperature. The settings on record: protein: recombinant;recombinant; tags: ;; copies: 1;1;1;1;1; label: 3' Cy3 on strand 1; reversed fork of 4 strands, 3' ssDNA tail.

In data set [8] the target is T3, RAD51;BCD(R266A)X2. Described as above. As to conditions: protein: recombinant;recombinant; tags: ;; copies: 1;1;1;1;1; label: 3' Cy3 on strand 1; reversed fork of 4 strands, 3' ssDNA tail.
Data set [9] concerns the target T4, RAD51;BCDX2 complex. The data set can be described thus: BLI; BCDX2 facilitates RAD51 binding; EMSA: 20 mM Tris-HCl pH 7.5, 2 mM MgCl2, 2 mM ATP, 37 C, 20 nM DNA, glutaraldehyde fixation; stopped-flow: 25 mM Tris-HCl pH 7.5, 5 mM MgCl2, 50 mM KCl, 2 mM ATP, 0.5 mM EDTA, 10% glycerol, 37 C; BLI: 50 mM Tris-HCl pH 7.5, 2 mM ATP, 50 mM KCl, 5 mM MgCl2, 0.05% Tween 20, room temperature. The settings on record: protein: recombinant;recombinant; tags: ;Strep-tag and His-tag (XRCC2 N-terminal His); copies: 1;1;1;1;1; label: 5' biotin.

B1: ssDNA 20mer (ssDNA)
DNA: GAATGTGTGTCTCAATC
With B1, the binding result in the data set with BCDX2 complex [1] was “binds”.

B2: ssDNA 15mer (ssDNA)
DNA: AGAAGAGAGCAGAGG
Take B2: in the data set with BCDX2 complex [2], the binding result is reported as “binds”.

B3: biotin-dT20 (ssDNA)
DNA: TTTTTTTTTTTTTTTTTTTT
On to B3, for which the binding result with RAD51;BCDX2(R159A) [3] and in the data set with RAD51;BCD(R266A)X2 [4] was “no binding” each time.

B4: 10ntRVF (mixed)
DNA 1: GACGCTGCCGAATTCTACCAGTGCCTTGCTATTTTTTTTTT
DNA 2: ATCTGTTGTAATCGTCAAGCTTTATGCCGTT
DNA 3: GAACGGCATAAAGCTTGACGATTACAACAGATCATGGAGCTGTCTAGAGGATCCGACTATCGA
DNA 4: ATCGATAGTCGGATCCTCTAGACAGCTCCATGTAGCAAGGCACTGGTAGAATTCGGCAGCGT
For the molecule B4, the binding result with BCDX2 complex [5] is on record as “binds”.

B5: RVF25ssDNA (mixed)
DNA 1: GACGCTGCCGAATTCTACCAGTGCCTTGCTATTTTTTTTTTTTTTTTTTTTTTTTTTTTTT
DNA 2: ATCTGTTGTAATCGTCAAGCTTTATGCCGTT
DNA 3: GAACGGCATAAAGCTTGACGATTACAACAGATCATGGAGCTGTCTAGAGGATCCGACTATCGA
DNA 4: ATCGATAGTCGGATCCTCTAGACAGCTCCATGTAGCAAGGCACTGGTAGAATTCGGCAGCGT
For the molecule B5, the binding result in the data set with RAD51;BCDX2 complex [6] was “binds”.

B6: 20ntRVF (mixed)
DNA 1: GACGCTGCCGAATTCTACCAGTGCCTTGCTATTTTTTTTTTTTTTTTTTTTTTTTT
DNA 2: ATCTGTTGTAATCGTCAAGCTTTATGCCGTT
DNA 3: GAACGGCATAAAGCTTGACGATTACAACAGATCATGGAGCTGTCTAGAGGATCCGACTATCGA
DNA 4: ATCGATAGTCGGATCCTCTAGACAGCTCCATGTAGCAAGGCACTGGTAGAATTCGGCAGCGT
B6: the binding result with RAD51;BCDX2(R159A) [7] and with RAD51;BCD(R266A)X2 [8] was “binds” throughout.

B7: biotin-dT15 (ssDNA)
DNA: TTTTTTTTTTTTTTT
Take B7: in the data set with RAD51;BCDX2 complex [9], the binding result was “binds”.
